{
  "source": "patent US20110283945A1",
  "biological_target": "trypsin activity of mated D. melanogaster female hemolymph",
  "experiment": "cell-based or functional assay",
  "data": [
    {"substance": "Bowman-Birk Inhibitor (BBI), trypsin/chymotrypsin inhibitor from soybeans (from UniProt P01055 40-110)", "values": [
      {"measurement": "reduced cleavage of the trypsin substrate N-Bnz-R-pna by mated female hemolymph", "value": 78, "unit": "%"}
    ]}
  ]
}
